This passage reports Kd results from PMC13079917.

This experiment concerns the target Monoclonal antibody L9 (human IgG). Description: KinExA (kinetic exclusion assay); equilibrium in solution; antigen serially diluted into a constant concentration of antibody (human IgG as constant binding partner); equilibrated 24 h; room temperature (about 25 °C); 1x HBS-EP+ pH 7.4 with BSA at 1 mg/mL; antigen cross-linked to beads as capturing reagent; n-curve analysis.

Monoclonal antibody L9 (human IgG), sequence (heavy, as listed by the source, chain 1 of 2): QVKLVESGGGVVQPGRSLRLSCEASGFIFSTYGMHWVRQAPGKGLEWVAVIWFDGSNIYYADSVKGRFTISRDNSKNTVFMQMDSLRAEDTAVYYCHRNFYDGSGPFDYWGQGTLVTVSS
Monoclonal antibody L9 (human IgG), sequence (light, as listed by the source, chain 2 of 2): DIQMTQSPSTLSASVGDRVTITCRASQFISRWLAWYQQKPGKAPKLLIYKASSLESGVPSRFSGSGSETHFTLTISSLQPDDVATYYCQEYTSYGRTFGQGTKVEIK

B1: triple-NPNV peptide (peptide)
chain: NANPNVDPNANPNVDPNANPNVDP
modifications: not checked
B1 showed a Kd of 0.059 nM.

B2: double-NPNV peptide (peptide)
chain: NANPNVDPNANPNVDP
modifications: not checked
The molecule B2 yielded a Kd of 4.56 nM.
